The subject of one data set is GBM. Nature of the data set: Example 4: treatment of GBM with dually elevated CD36 and CD47. The format is in vivo. Particulars: expected. The protocol:
Subjects having GBM are identified using standard clinical protocols. Samples are obtained and levels of CD36 and CD47 measured using methods known in the art. Subjects presenting with dually elevated CD36 and CD47 levels as compared to suitable controls are selected for dosing with VT1021. Subjects advancing to the treatment phase are administered VT1021. Frequency and dosage are determined in accordance with the stage and severity of disease accordingly to methods standard in the art. Tumor burden and other disease indicators are measured and data compiled using methods known in the art.

The test system of a further data set is pancreatic cancer. Nature of the data set: Phase I/II clinical study: tumor burden, stable disease and days on study in pancreatic cancer (Part 2). The format is in vivo, human. The protocol: VT1021 was evaluated in a recently completed phase I/II open-label, multicenter, dose escalation (Part 1) and expansion (Part 2) clinical study in advanced, refractory, solid tumors including pancreatic cancer (NCT03364400). Seven subjects with pancreatic cancer were dosed in Part 1 and 32 were dosed in Part 2, 17 of which were considered evaluable as having completed ≥1 cycle of VT1021 treatment and tumor imaging during cycle 2. […] In the “expansion stage” of the VT1021-01 Study, subjects diagnosed with recurrent GBM, pancreatic cancer, ovarian cancer and other solid tumors were enrolled. They were treated with VT1021 at 11.8 mg/kg, twice weekly by IV infusion. The blood samples were collected from the clinical study at pre-treatment, 0, 2, 4, 6 hours post treatment to measure the levels of VT1021 (FIG. 2). The tumor biopsy samples prior to treatment and during treatment were collected from the clinical study to measure expression levels of biomarkers including CD36 and CD47, as well as cell surface markers for immune cell populations in the TME by immunohistochemistry assays (FIG. 3, FIG. 4, FIG. 5). The correlation between days on study and tumor shrinkage versus expression profile of CD36 and CD47 was analyzed (FIG. 4). The general expression profile of CD36 and CD47 has been assessed by IHC on Tumor Tissue Microarrays (TMAs), which contain biopsy samples collected from pancreatic cancer patients. TMAs were purchased from commercial sources, not related to the VT1021-01 clinical study. […] A waterfall plot illustrates changes in tumor burden for 14 subjects in Part 2 with pancreatic cancer with measurable disease.

Another data set concerns TSP-1. Kind of data set: TSP-1 protein by ELISA in peripheral blood mononuclear cells of rGBM subjects. Type of data set: in vivo, human. Particulars: all evaluable subjects with rGBM. The source says:
FIG. 10 is a chart showing that VT1021 induces TSP-1 in the circulation and the TME. (A) Bar graph of Tsp-1 protein levels measured by ELISA in circulating MDSCs collected prior to (baseline) and after (induction) treatment with VT1021 from patients who experienced complete or partial response, stable disease, or progressive disease; (B) H&E and immunohistochemical analysis of patient tumor tissue prior to onset (pre) or during treatment with VT1021; (C) Immunohistochemical analysis depicting representative images of high levels of CD36 and CD47.
(§1) The blood samples were collected from GBM subjects in the expansion phase, who were treated by VT1021 at 11.8 mg/kg, twice weekly, by IV infusion. VT1021 levels were measured and analyzed among male and female subjects (FIG. 7). […] CD36 and CD47 levels have been measured by immunohistochemistry assays in the pre-treatment tumor biopsy samples of the GBM subjects (FIG. 9, FIG. 10). Levels of Tsp-1 were measured by ELISA for circulating Tsp-1 levels in the collected blood samples, and by immunohistochemistry for the level of Tsp-1 accumulated in the tumor biopsy samples (FIG. 10). The infiltration of immune and inflammatory cells, specifically, MDSCs, T cells and macrophages, were determined by immunohistochemical analysis of the levels of cell surface markers in the tumor biopsy samples of subjects (FIG. 11).

Another data set relates to subjects with rGBM. Kind of data set: Phase I/II clinical study (NCT03364400): adverse events in subjects with recurrent GBM. Type of data set: in vivo, human. The method, then:
VT1021 was evaluated in a recently completed phase I/II open-label, multicenter, dose escalation (Part 1) and expansion (Part 2) clinical study in advanced, refractory, solid tumors including recurrent GBM (rGBM) (NCT03364400). Thirty-two subjects with rGBM were dosed in Part 2, 22 of which were considered evaluable as having completed ≥1 cycle of VT1021 treatment and tumor imaging during cycle 2. […]

In data set [1] the test system is tumor microenvironment (TME) in rGBM. Nature of the data set: IHC and multiplex ion beam imaging of immune cells in rGBM tumor biopsy pair. Type of data set: in vivo, human. As to conditions: rGBM subject with CR.
From the text: FIG. 11C is a bar graph of the change in the percentage of M1 and M2 macrophages in patient tumor tissue as determined by metal ion immunostaining.
FIG. 11E is a bar graph depicting the fold-change in cytotoxic T lymphocytes (CTLs) in patients prior to the onset of treatment with VT1021 (pre-treatment) and during treatment with VT1021 (On-Study) as determined by metal ion immunostaining.
FIG. 11F is a bar graph depicting the fold-change in total and monocytic myeloid derived suppressor cells (MDSCs) in patients prior to the onset of treatment with VT1021 (pre-treatment) and during treatment with VT1021 (On-Study) as determined by metal ion immunostaining.
as §1, with “7). Days on study have been collected from the same group of subjects (FIG. 8).” for “7).”
FIG. 11A, FIG. 11B, FIG. 11C, FIG. 11D, FIG. 11E, and FIG. 11F are charts showing modulation of the immune system by VT1021 in circulation and in the TME. […] Proliferating CTLs increased ≥1.5 fold regardless of clinical response, proliferating helper T cells increased ≥1.5 fold in CR/PR and PD subjects while monocytic MDSCs (mMDSCs) and activated MDSCs decreased≤0.5 fold in all evaluable subjects. […] Percent of M1 increased 1.9-fold while M2 decreased 0.6-fold after treatment. […] CTLs increased >4 fold while total and mMDSCs […] >15 fold in the on-study biopsy compared to pre-treatment.

[2] abbreviates: GBM, 32 Subjects, all cycles, maximum grade, regardless of causality.
Setting [3] is: on-study biopsy vs pre-treatment, multiplex ion beam imaging, increased.

No end group written: not given here.

With “cyclic DWLPK (also: cyclic, mode of cyclisation not given here) [VT1021, 5-amino acid cyclic peptide from prosaposin; Tsp-1-inducing agent]”, the “tumor burden compared to control subjects” value in the data set with GBM is listed as “reduction in tumor burden”. In addition, in the data set with pancreatic cancer (Part 2 pancreatic cancer, all dually high CD36 and CD47), the “subjects with stable disease” value turned out to be 3 subjects. Moreover, the “subjects with reduction of tumor burden” value with pancreatic cancer (of 14 Part 2 pancreatic cancer subjects with measurable disease, all dually high CD36 and CD47) is given as 5 subjects. Also, the “average time remained on the study” value with pancreatic cancer (the 5 pancreatic cancer subjects with reduction of tumor burden (dually high)) was 105 days. Further, in the data set with TSP-1, the “TSP-1 protein in peripheral blood mononuclear cells (PBMCs)” value was “induced”. In addition, in the data set on subjects with rGBM (setting [2]), the “Abdominal Pain (AE), All Grades” value was 5; the “Abdominal Pain (AE), Grade 1-2” value was found to be 5; the “Diarrhea (AE), All Grades” value is reported as 4; the “Diarrhea (AE), Grade 1-2” value worked out at 4. Besides, in the data set on subjects with rGBM (setting [2]), the “Fall (AE), All Grades” value is recorded as 9; the “Fall (AE), Grade 1-2” value was 9; the “Infusion reaction (AE), All Grades” value was 3; the “Infusion reaction (AE), Grade 1-2” value worked out at 3. In addition, in the data set with subjects with rGBM (setting [2]), the “Nausea (AE), All Grades” value was found to be 3; the “Nausea (AE), Grade 1-2” value is recorded as 3; the “Vomiting (AE), All Grades” value came out at 3; the “Vomiting (AE), Grade 1-2” value is 2. The “Vomiting (AE), Grade 3-4” value in the data set on subjects with rGBM (setting [2]) came to 1. Moreover, the “major adverse events (AEs)” value in the data set with subjects with rGBM (phase I/II study, solid tumors including rGBM) was “no major adverse events”. In data set [1] (biopsy pair pre-treatment vs on-study, decreased), the “M2 macrophages, fold change” value stood at 0.6 fold. Further, in data set [1] (biopsy pair pre-treatment vs on-study, increased), the “Percent of M1 macrophages, fold change” value stood at 1.9 fold. Also, in data set [1] (setting [3]), the “CTLs, fold change” value is more than 4 fold; the “mMDSCs, fold change” value is more than 15 fold; the “total MDSCs, fold change” value is listed as more than 15 fold.
